Target: GAL4-WT1 (WT1 fused to the DNA-binding domain of GAL4) (UniProt P04386)
Assay: cell-based or functional assay

“par-4 expressed from pCMV-par-4 in transfected cells” was tested, and the WT1-mediated transcriptional repression of pGAL4TKCAT (CAT assay) was 3 fold.
